Results: article PMC2077811 (The Journal of biological chemistry, 2006)

Molecular target: T1, hRad51 (human, UniProt Q06609 1-339)
T1 sequence (looked up): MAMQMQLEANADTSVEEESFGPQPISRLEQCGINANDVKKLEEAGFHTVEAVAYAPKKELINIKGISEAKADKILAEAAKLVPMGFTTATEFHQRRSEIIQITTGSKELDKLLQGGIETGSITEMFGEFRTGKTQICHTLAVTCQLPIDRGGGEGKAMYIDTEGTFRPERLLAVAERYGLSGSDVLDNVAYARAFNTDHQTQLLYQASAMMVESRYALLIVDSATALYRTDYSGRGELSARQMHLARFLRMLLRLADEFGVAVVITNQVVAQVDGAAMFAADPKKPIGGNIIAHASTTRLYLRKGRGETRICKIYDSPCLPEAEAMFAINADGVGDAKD
Test: pull-down

B1: GST-BRC3/4 (domain or fragment, human, UniProt P51587 1409-1596, looked up)
chain: LTATKTEQNIKDFETSDTFFQTASGKNISVAKESFNKIVNFFDQKPEELHNFSLNSELHSDIRKNKMDILSYEETDIVKHKILKESVPVGTGNQLVTFQGQPERDEKIKEPTLLGFHTASGKKVKIAKESLDKVKNLFDEKEQGTSEITSFSHQWAKTLKYREACKDLELACETIEITAAPKCKEMQN
- binding result: binds
